Test: yeast display, Sf9 membrane polyspecificity reagent, FACS + sequencing; frameworks hold sequencing errors
Summary of the method: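 A nanobody's polyreactivity label depends on the gate it was sorted from. Yeast display cells were stained with 10% biotinylated, detergent-solubilized Sf9 membrane reagent for 1 hour at 4 °C, enriched on streptavidin microbeads and sorted by FACS. The low and high (top ~1%) gates were set on anti-HA fluorescence for expression and streptavidin fluorescence for reagent binding.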

Row | Sequence | polyreactivity (PSR sort gate)
1 | QVQLVESGGGLVQAGGSLRLSCAASGRIFDLNTMGWYRQAPGKERELVAAISSGGSTYYADSVKGRFTISRDNAKNTVYLQMNSLKPEDTAVYYCAADKIRGYRIRMYWGQGTQVTVSS | low polyreactivity
2 | QVQLVESGGGLVQAGGSLRLSCAASGRIFDLNVMGWYRQAPGKERELVAAIRSGGRTNYADSVKGRFTISRDNAKNTVYLQMNSLKPEDTAVYYCNVRRGYWHPGYGWANYDYWGQGTQVTVSS | high polyreactivity
3 | QVQLVESGGGLVQAGGSLRLSCAASGRIFDLYAMGWYRQAPGKEREFVAAISGRGGSTYYADSVKGRFTISRDNAKNTVYLQMNSLKPEDTAVYYCNAKRSLYGRYGYWGQGSQVTVSS | high polyreactivity
4 | QVQLVESGGGLVQAGGSLRLSCAASGRIFDLYTMGWYRQATGKERELVAAIRWSDGSTYYADSVKGRFTISRDNAKNSVYLQMNSLKPVDTAVYYCAADTRTSYYNDDYDYWGQGTQVTVSS | low polyreactivity
5 | QVQLVESGGGLVQAGGSLRLSCAASGRIFDPYAMGWYRQAPGKEREVVASISWSGGRTYYADSVKGRFTISRDNAKNTVYLQMNSLKPEDTAVYYCAARQWYRYKVRIDYWGQGTQVTVSS | high polyreactivity
6 | QVQLVESGGGLVQAGGSLRLSCAASGRIFDPYTMGWYRQAPGKERELVAAISGRTGRTYYADSVKGRFTISRDNAKNTVYLQMNSLKPEDTAVYYCNAVRYVVLPGGPKFDYWGQGTQVTVSS | high polyreactivity
7 | QVQLVESGGGLVQAGGSLRLSCAASGRIFDRYAMGWYRQAPGKERELVASITSSGGNTYYADSVKGRFTISRDNAKNTVYFQMNSLKPEDTAVYYCAKPQRVWQYGNYYYWGQGTQVTVSS | high polyreactivity
8 | QVQLVESGGGLVQAGGSLRLSCAASGRIFDSYAMGSYRQAPGKERELVAVISNNDGTTYYADSVKGRFTISRDNEKNTVYLQMNSLKPEDTAVYYCAAEEPLFGYLWYVVTYAGIYDYWGQGSQVTVSS | low polyreactivity
9 | QVQLVESGGGLVQAGGSLRLSCAASGRIFDSYTMGWYRQEPGKERELVAAISGGGITNYADSVKGRFTISRDNAKNTVYLQMNSLKPEDTAVYYCAARDRYYFGGMYYWGQGTQVTVSS | low polyreactivity
10 | QVQLVESGGGLVQAGGSLRLSCAASGRIFDTNAMGWYRQAPGKEREFVAAISRSGGSTYYADSVKGRFTISRDNAKNTVYLQMNSLKPEDTAVYYCAARWYVLQPLGYDASRYGYWGQGTQVTVSS | high polyreactivity
11 | QVQLVESGGGLVQAGGSLRLSCAASGRIFDTNFIGWYRLAPGKERELVAANSQSGGITYYADSVKGRFTISRDNAKKTVYLQMNSLKPEDTAVYYCAKDTVTVSFNEYDYWGQGTQVTVSS | low polyreactivity
12 | QVQLVESGGGLVQAGGSLRLSCAASGRIFDTNVRGWSRQAPGKERELVAAISSGGSTYYADSVKGRFTISRDNAKTTVYLQMNSLKPEDTAVYYCAAESRTSRARRYYWGQGTQVTVSS | high polyreactivity
13 | QVQLVESGGGLVQAGGSLRLSCAASGRIFDTYAMGWYRQAPGKERELVAAITRRGGSTYYADSVKGRFTISRDNAKNTVYLQMNSLKPEDTAVYYCAKSLVNRHYDYWGQGTQVTVSS | low polyreactivity
14 | QVQLVESGGGLVQAGGSLRLSCAASGRIFDTYVMGWYRQAPGKERELVAAISRSGGSTYYADSVKGRFTISRDNAKNTVYLQMNSLKPEDTAVYYCNKLASWWSAYYNPYEYWGQGTQVTVSS | high polyreactivity
15 | QVQLVESGGGLVQAGGSLRLSCAASGRIFDVYAMGWYRQAPGKERELVAAITWSGTSTYYADSVKGRFTISRDNAKNTVYLQKNSLKPEDTAVYYCAAEVAYTDTEYFWYYYWGQGTQVTVSS | high polyreactivity
16 | QVQLVESGGGLVQAGGSLRLSCAASGRIFDVYAMGWYRQAPGKERELVATITCSGGGTYYADSVKGRFTISRDNAKNSVYLQMNSLKPEDTAVYYCAADYYPTYAYYVSNVGYDYWGQGTQVTVSS | low polyreactivity
17 | QVQLVESGGGLVQAGGSLRLSCAASGRIFDWNMGWYRQAPGKERELVAGITFSVDSTYYADSVKGRFTISRDNAKNTVYLQMNSLKPEDTAYWGQGTQVTVSS | low polyreactivity
18 | QVQLVESGGGLVQAGGSLRLSCAASGRIFDYAMGWYRQAPGKERELVAAISGSGGSTYYADSVKGRFTISRDNAKNTVYLQMNSLKPEDTAVYYCSTSGPQYYSRNFDYWGQGTQVTVSS | low polyreactivity
19 | QVQLVESGGGLVQAGGSLRLSCAASGRIFDYNAMGWYRQAPGKERELVAAITSAGGTNYADSVKGRFTISRDNAKNTVYLQMNSLKPEDTAVYDCAADGSGYYDWYYYWGQGTQVTVSS | low polyreactivity
20 | QVQLVESGGGLVQAGGSLRLSCAASGRIFDYYAMGWYRQAPGKERELVAAISSSVGNTYYADSVKGRFTISRDNAKNSVYLQINSLKQEDTAVYYCADYSYVRSSYEVEYDYWGQGTQVTVSS | low polyreactivity
21 | QVQLVESGGGLVQAGGSLRLSCAASGRIFDYYAMGWYRQAPGKERELVASISRSGGSTYYADSVKGRFTISRDNAKNTVYLQMNSLKPDDSAVYYCAASRGYYYGRVGYWGQGTQVTVSS | high polyreactivity

Row | Sequence | polyreactivity (PSR sort gate)
22 | QVQLVESGGGLVQAGGSLRLSCAASGRIFDYYAMGWYRQAPGKERELVATINFSDGSTYYADSVKGRFTISRDNAKNTVYLQMNSLKPEDTAGYYCAAAGWEPYDSLDMNYWGQGTQVTVSS | low polyreactivity
23 | QVQLVESGGGLVQAGGSLRLSCAASGRIFEHYAMGWYRQAPGKERELVAAITVSVGSTYYADSVKGRFTISRDNAKNTVYLEMNSLKPEDTAVYYCAAGIHCRYARDWYEYWGQGTQVTVSS | low polyreactivity
24 | QVQLVESGGGLVQAGGSLRLSCAASGRIFEINAMGWYRQAPGKERELVAGISYSGGSTYYADSVKGRFTISRDNAKNTVYLQMNSLKPEDTAVYYCAALFQSYQITYDSWGQGTQVTVSS | low polyreactivity
25 | QVQLVESGGGLVQAGGSLRLSCAASGRIFELYAMGWYRQAPGKERELVADITTIGDSTYYADSVKGRFTISRDNAKNTVYLQMNSLKPEDTAVYYCAADPYVDSYDSWGQGTQVTVSS | low polyreactivity
26 | QVQLVESGGGLVQAGGSLRLSCAASGRIFEYYAMGWYRQAPGKERELVAVISSGSSTNYADSVKGRFTISRDNAKNTVYLQMNSLKPEDTAVYYCAAEYSVYYRFSDGDYWGQGTQVTVSS | low polyreactivity
27 | QVQLVESGGGLVQAGGSLRLSCAASGRIFFANAMGWYRQAPGKERELVAAISWRGGSTYYADSVKGRFTISRDNAKNTFYLQMNSLKPEDTAVYYCNAVTRGYYHEMEYWGQGTQVTVSS | high polyreactivity
28 | QVQLVESGGGLVQAGGSLRLSCAASGRIFFANAMGWYRQAPGKEWELVGAISRGGRTNYADSVKGRFTISRDNAKNTVYLQMNSLKPEDTAVYYFAAVRLSHAPSYYLYGMAYWGHGTQVTVSS | low polyreactivity
29 | QVQLVESGGGLVQAGGSLRLSCAASGRIFFAYAMGWYRQAPGKEREFVAAISDNDGSTYYADSVKGRFTISRDNAKNTVYLQMNSLKPEDTAVYYCNADLGYVYDYWGQGTQVTVSS | low polyreactivity
30 | QVQLVESGGGLVQAGGSLRLSCAASGRIFFDYAMGSYRQAPGKEWVLVAAINRGGRTYYADSVKGRFTMSRDNAKNTVYLPMNTLKPEDTAVYYCPADGQTAKSNFAYWGQRTQVTVSS | low polyreactivity
31 | QVQLVESGGGLVQAGGSLRLSCAASGRIFFFNAMGWYRQAPGKERELVARITRGGSTNYADSVKGRFTISRDNAKNTVYLQMNILKPEDTAVYYCARDGYATTNARYGYDYWGQGTQVTVSS | low polyreactivity
32 | QVQLVESGGGLVQAGGSLRLSCAASGRIFFHYAMGWYRQAPGKERELVAVISSSGGITYYADSVKGRFTFSRDNAKNTVYLQMNSLKPEDTAVYYCNTVPRPFDRYGYWGQGTQVTVSS | low polyreactivity
33 | QVQLVESGGGLVQAGGSLRLSCAASGRIFFLNTMGWYRQAPGKERELVAAITRGGSTYYADSVKGRFTISRDNAKNTVYLQMNSLKPEDTAVYYCAADVYGGIGYDYWGQGTQVTVSS | low polyreactivity
34 | QVQLVESGGGLVQAGGSLRLSCAASGRIFFLYAMGWYRQAPGKERELVASINRGGNTNYADSVKGRFTISRDNAKNTVYLHMNSLKPEDTAVYYCAARLVIFYPYSRYYYWGQGTQVTVSS | high polyreactivity
35 | QVQLVESGGGLVQAGGSLRLSCAASGRIFFPYAMGWYRQAPGKERELVAAINYSGGSTYYADSVKGRFTISRDNAKNTVYLQMNSLKPEDTAVYYCADGYFWALYVRKYDYWGQGTQVTVSS | high polyreactivity
36 | QVQLVESGGGLVQAGGSLRLSCAASGRIFFRYVMGWYRQAPGKERELVAAIDRGGTTNYADSVKGRFTISRDNAKNTVYLQMNSLKPEDTAVYYCAVRYFPYRDYYWGQGTQVTVSS | high polyreactivity
37 | QVQLVESGGGLVQAGGSLRLSCAASGRIFFTNAMGWYRQAPGKERELVAAISKYGARTYYADSVKGRFTISRDKAKNTVYLQMNSLKPEDTAVYYCAADVSVSGYYYWGQGTQVTVSS | high polyreactivity
38 | QVQLVESGGGLVQAGGSLRLSCAASGRIFFTNTMGWYRQAPGKERELVAAITRSGTRTYYADSVKGRFTISRDNAKNTVYLQMNSLKPEDTAVYYCNAVVRQLVRYDYWGQGTQVTVSS | high polyreactivity
39 | QVQLVESGGGLVQAGGSLRLSCAASGRIFFVYAMGWYRQAPGKERELVASITGGGSTNYADSVKGRFTISRDNAKNTVYLQMNSLKPEDTAVYYCAADIHSTRVFPEYPSGYDYWGQGTQVTVSS | low polyreactivity
40 | QVQLVESGGGLVQAGGSLRLSCAASGRIFFVYAMGWYRQSPGKERELVAAISVSDVSTSYADSVKGRFTISRDIAKNTVYLQMNSLKQEDTAVYYCNAGFRFYVYSRIGGEDYWGQGTQVTVSS | low polyreactivity
41 | QVQLVESGGGLVQAGGSLRLSCAASGRIFFYNAMGWSRQAPGKERELVAAISARGDRTYYADSVKGRFTISRDNAKNTVYLQMNSLKPEDTAVYYCAADYYNYRYDYWGQGTQVTVSS | high polyreactivity

— the nanobody polyreactivity screen of Harvey et al. (2022)
